Results reported in paper PMC7910549.

Biological target: GFP-tagged CSB (UniProt Q03468)
Assay: affinity purification with mass spectrometry; label-free quantification and iBAQ; GFP-CSB pulled down with GFP Trap beads from U2OS CSB-KO cells; untreated against 20 J/m^2 UV-C with 1 h recovery

UniProt Q03468, sequence (Q03468 whole entry): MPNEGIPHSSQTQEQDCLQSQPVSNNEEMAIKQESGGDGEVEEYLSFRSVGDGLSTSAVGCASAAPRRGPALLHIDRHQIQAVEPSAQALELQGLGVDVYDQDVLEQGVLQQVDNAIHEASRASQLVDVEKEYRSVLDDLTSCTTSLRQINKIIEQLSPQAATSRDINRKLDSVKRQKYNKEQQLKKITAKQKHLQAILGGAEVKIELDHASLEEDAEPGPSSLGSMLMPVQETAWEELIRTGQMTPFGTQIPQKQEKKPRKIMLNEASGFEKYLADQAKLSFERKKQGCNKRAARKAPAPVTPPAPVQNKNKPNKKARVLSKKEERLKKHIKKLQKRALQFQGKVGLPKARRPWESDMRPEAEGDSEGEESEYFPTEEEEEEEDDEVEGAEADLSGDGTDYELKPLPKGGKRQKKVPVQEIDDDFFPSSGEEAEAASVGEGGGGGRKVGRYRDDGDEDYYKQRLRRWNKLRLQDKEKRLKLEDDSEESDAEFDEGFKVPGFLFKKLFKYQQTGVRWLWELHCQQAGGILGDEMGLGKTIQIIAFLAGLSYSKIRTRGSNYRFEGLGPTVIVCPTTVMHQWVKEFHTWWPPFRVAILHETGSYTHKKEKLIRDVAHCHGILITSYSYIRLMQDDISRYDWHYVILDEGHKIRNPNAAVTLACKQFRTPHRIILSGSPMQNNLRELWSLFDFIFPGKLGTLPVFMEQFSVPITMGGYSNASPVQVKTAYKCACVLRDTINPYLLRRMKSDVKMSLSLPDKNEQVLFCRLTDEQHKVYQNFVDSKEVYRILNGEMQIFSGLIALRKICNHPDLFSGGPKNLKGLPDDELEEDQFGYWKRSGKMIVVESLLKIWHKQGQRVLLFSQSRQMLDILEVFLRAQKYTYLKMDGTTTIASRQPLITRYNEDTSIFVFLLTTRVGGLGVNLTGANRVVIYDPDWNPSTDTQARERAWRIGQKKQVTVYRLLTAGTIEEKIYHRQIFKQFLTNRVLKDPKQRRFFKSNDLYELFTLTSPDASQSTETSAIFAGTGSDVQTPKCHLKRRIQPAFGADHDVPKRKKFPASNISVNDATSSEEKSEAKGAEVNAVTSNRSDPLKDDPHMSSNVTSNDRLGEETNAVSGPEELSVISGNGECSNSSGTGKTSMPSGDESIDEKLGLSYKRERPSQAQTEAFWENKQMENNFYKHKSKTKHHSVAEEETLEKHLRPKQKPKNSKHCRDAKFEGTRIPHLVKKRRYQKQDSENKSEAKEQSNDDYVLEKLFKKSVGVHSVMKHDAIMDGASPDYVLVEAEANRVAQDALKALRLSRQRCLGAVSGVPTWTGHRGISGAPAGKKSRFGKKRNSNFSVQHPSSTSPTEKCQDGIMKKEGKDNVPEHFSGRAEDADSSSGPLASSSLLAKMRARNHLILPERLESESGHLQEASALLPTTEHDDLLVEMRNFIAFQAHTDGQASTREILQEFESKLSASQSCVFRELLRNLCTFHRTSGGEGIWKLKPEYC

- percent of the isolated CSB molecules associated (iBAQ): > 60%
Substance: RNA polymerase II (RNAPII), endogenous (from UniProt P24928 1-1970) (complex)
